Test results: patent US20040175758

Biological target: T1, Q2L, synthetic peptide Ac-LATLSHCIELMVKR-NH2 (L-amino acids)
T1 chain: LATLSHCIELMVKR

B1: Recombinant FLAG-tagged human GPBP (expressed in yeast, FLAG-affinity purified) (protein)
chain: MSDNQSWNSSGSEEDPETESGPPVERCGVLSKWTNYIHGWQDRWVVLKNNALSYYKSEDETEYGCRGSICLSKAVITPHDFDECRFDISVNDSVWYLRAQDPDHRQQWIDAIEQHKTESGYGSESSLRRHGSMVSLVSGASGYSATSTSSFKKGHSLREKLAEMETFRDILCRQVDTLQKYFDACADAVSKDELQRDKVVEDDEDDFPTTRSDGDFLHSTNGNKEKLFPHVTPKGINGIDFKGEAITFKATTAGILATLSHCIELMVKREDSWQKRLDKETEKKRRTEEAYKNAMTELKKKSHFGGPDYEEGPNSLINEEEFFDAVEAALDRQDKIEEQSQSEKVRLHWPTSLPSGDAFSSVGTHRFVQKPYSRSSSMSSIDLVSASDDVHRFSSQVEEMVQNHMTYSLQDVGGDANWQLVVEEGEMKVYRREVEENGIVLDPLKATHAVKGVTGHEVCNYFWNVDVRNDWETTIENFHVVETLADNAIIIYQTHKRVWPASQRDVLYLSVIRKIPALTENDPETWIVCNFSVDHDSAPLNNRCVRAKINVAMICQTLVSPPEGNQEISRDNILCKITYVANVNPGGWAPASVLRAVAKREYPKFLKRFTSYVQEKTAGKPILF
  GPBP autophosphorylation in vitro: efficiently inhibited GPBP autophosphorylation
